Assay results taken from PMC7380067.
Numbering of substitutions follows the chain as printed. pKd: −log10 of the molar value.

Tests used:
[1] = system: AgrR-His6 (Cupriavidus metallidurans NA4); assay: EMSA; settings: 25 ug/ml salmon sperm DNA; 25 mM Na2HPO4, 150 mM NaCl, 0.1 mM EDTA, 2 mM MgCl2, 1 mM DTT, 10% glycerol, pH 7.0, 22 C, about 0.1 nM probe, 25 ug/ml sonicated salmon sperm DNA
[2] = molecular target: T1, AgrR-His6 (Cupriavidus metallidurans NA4) (UniProt Q1LMJ6); assay: EMSA; settings: 25 mM Na2HPO4, 150 mM NaCl, 0.1 mM EDTA, 2 mM MgCl2, 1 mM DTT, 10% glycerol, pH 7.0, 22 C, about 0.1 nM probe, 25 ug/ml sonicated salmon sperm DNA
T1 sequence: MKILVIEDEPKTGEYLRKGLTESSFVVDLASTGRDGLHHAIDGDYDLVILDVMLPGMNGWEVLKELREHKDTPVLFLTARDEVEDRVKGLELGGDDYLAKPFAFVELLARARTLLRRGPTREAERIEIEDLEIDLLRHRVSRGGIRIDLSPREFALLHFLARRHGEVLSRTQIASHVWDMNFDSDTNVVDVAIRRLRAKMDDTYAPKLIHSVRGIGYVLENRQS

[3] = molecular target: T1, AgrR-His6 (Cupriavidus metallidurans NA4); assay: in gel (OP)2-Cu+ footprinting; settings: 25 mM Na2HPO4, 150 mM NaCl, 0.1 mM EDTA, 2 mM MgCl2, 1 mM DTT, 10% glycerol, pH 7.0, 22 C, about 0.1 nM probe, 25 ug/ml sonicated salmon sperm DNA
[4] = molecular target: T2, MBP-AgrR D51A D51A (Cupriavidus metallidurans NA4) (UniProt Q1LMJ6); assay: premodification binding interference (depurination, depyrimidination, DMS methylation); settings: 25 mM Na2HPO4, 150 mM NaCl, 0.1 mM EDTA, 2 mM MgCl2, 1 mM DTT, 10% glycerol, pH 7.0, 22 C, about 0.1 nM probe, 25 ug/ml sonicated salmon sperm DNA
T2 sequence: T1 sequence with D51A

[5] = molecular target: T1, AgrR-His6 (Cupriavidus metallidurans NA4); assay: DNase I footprinting; settings: 25 mM Na2HPO4, 150 mM NaCl, 0.1 mM EDTA, 2 mM MgCl2, 1 mM DTT, 10% glycerol, pH 7.0, 22 C, about 0.1 nM probe, 25 ug/ml sonicated salmon sperm DNA
[6] = molecular target: T2, MBP-AgrR D51A D51A (Cupriavidus metallidurans NA4); assay: DNase I footprinting; settings: 25 mM Na2HPO4, 150 mM NaCl, 0.1 mM EDTA, 2 mM MgCl2, 1 mM DTT, 10% glycerol, pH 7.0, 22 C, about 0.1 nM probe, 25 ug/ml sonicated salmon sperm DNA
[7] = molecular target: T3, MBP-AgrR D51E D51E (Cupriavidus metallidurans NA4) (UniProt Q1LMJ6); assay: EMSA; settings: 25 mM Na2HPO4, 150 mM NaCl, 0.1 mM EDTA, 2 mM MgCl2, 1 mM DTT, 10% glycerol, pH 7.0, 22 C, about 0.1 nM probe, 25 ug/ml sonicated salmon sperm DNA
T3 sequence: T1 sequence with D51E

[8] = molecular target: T2, MBP-AgrR D51A D51A (Cupriavidus metallidurans NA4); assay: EMSA; settings: 25 mM Na2HPO4, 150 mM NaCl, 0.1 mM EDTA, 2 mM MgCl2, 1 mM DTT, 10% glycerol, pH 7.0, 22 C, about 0.1 nM probe, 25 ug/ml sonicated salmon sperm DNA
[9] = system: MBP-AgrR D51A (Cupriavidus metallidurans NA4); assay: EMSA; settings: 25 ug/ml salmon sperm DNA; 25 mM Na2HPO4, 150 mM NaCl, 0.1 mM EDTA, 2 mM MgCl2, 1 mM DTT, 10% glycerol, pH 7.0, 22 C, about 0.1 nM probe, 25 ug/ml sonicated salmon sperm DNA

In the case of czcL-czcR2 intergenic region, the pKd [1] was 4.58.

prsQ2 promoter/operator gave a pKd [1] of 5.80.

“TGAAGCCGATCCATGACATAGTCTCCCTGTTCACCGGTGAATTTTTACACGATCCGGGTGATTTATTGTTGAAAGCACAACCAATCATTGTGGACGGCGCTATTTATTCATATCAGGGAAATGCCTAATATCGCACCATCTGATGCCGCATTGCAGCACCGGTCCTGGGACCACCGGCATCCTTGAATGTGAAAGAGGATTCCATCATG (double strand) [prsQ1 promoter]” was tested, and the binding [2] was “no binding”.

Work on “TAGAACTGCCTGTGTTGAGCAGTTGCAGCATTGTACTGCCTCTAACGGTTGCAAAATGGCTATATCAAGATGACATTCGTGCAATGTTCGCCAATTCGTGGCAAAGCTCCGCTAGTGTCTCGGTCTATATCCAGAACCTCGAATAATGGGCCGGTACCAA (double strand) [czcL-czcR2 intergenic region]” yielded a pKd [2] of 4.58.

copA2-copR2 intergenic region showed a pKd [1] of 5.68.

For “ATGGGTTACGGGTTGTTCACGGCTTGCTGGAGAGTCTGATCGGTCGTTGCGCGACCTTGGAATGCAGTCTAGAGGGCGGGTCCCGACGCGAACATGACCCTTGAATGACATTGATGTCATTTGTCCGAGGCAATGCGATACGATTGCCGGACAGGGTGCCGACCGGACAATGAATTCGGCCTTGGCGACAAATCCACGCCAAACAAC (double strand) [prsQ2 promoter/operator]”, the binding [3] was “binds” and the pKd [2] was 5.80.

“GTTTTCATCCTCAGCTGCACGGGCTCACAGCTCAAACGATGCCGCCGATGATAACGGCGCAGGTTCGCCTATTGGATGACAAGACTGTAATCGTTTCGTCCCCGTTTGAAAGGGTGTTGCGTACATAGAATCGCCGCTAATTCTGGATGACCGGCGCCGACAGCGCCTGGAGTGAACCATGTGGATTGTGC (double strand) [agrR control region]” was tested, and the binding [4] was “binds”, the binding [5] was “binds” and the binding [6] was “binds”. For the same substance, the binding [3] was “binds”, the pKd [2] was 4.78 and the binding [7] was “binds more weakly”. The pKd [8] was 5.80.

For “GTGTCCTCGTCAAACCAATGCACCCGGGCCCCGTGCCCGGAAAACGCCGCAAGTGTACGCCGCGGTCCGAACATGACGCGGACATTACCGGAATGTAATTTTTGGGTCATTAGGTGGTTACCGCGCCCTGACTACTCTGTGCTCGCTGCGCCATTTTGCTGGCGCGATTTCACAATGAGAA (double strand) [copA2-copR2 intergenic region]”, the binding [5] was “binds”, the binding [6] was “binds” and the binding [3] was “binds”. It also gave a pKd [2] of 5.68.

With “AGGACGTTATCAGGGGTGGTGCGAGCCATGTCAAATTCCATTGATTCTTGTTCCCTGTCATTGAAGACCCTTTAGTCGCTACAGGGTCAAGCGCCTGCCGAAAATCTTTGGAGCGGCGCAAACATGACATGAACGTAATGTTTGCCCGCTCGCTAAACGCCTATAATCGCC (double strand) [czcI2 promoter]” the binding [2] was “binds more weakly”.

With “ATTGGAGCGGCGAGTATAGAAATGCCGACATTTCGTTTCGATTGCGGCGAGATTACAGCCGCATCGTTCCGGGCGCGGGCAGGCAGAAAAGGAGGGCGCGAGAGAAGGGCGAGAGAAGGGCGAGGGAAGGGCGGGACTACCCCGCGCCTTGGGTGCGGGGCCTGTGTCGGGTCAATCGACCCAGTTCACCTT (double strand) [ompC-like promoter]” the binding [2] was “binds more weakly”.

agrR control region showed a pKd [1] of 4.78 and a pKd [9] of 5.80.
